Patent US20260242730A1 (POINTLOMA BIOSCIENCES, published 2026)

T1: recombinant human TROP2 protein (human, UniProt P09758 27-274)
T1 chain: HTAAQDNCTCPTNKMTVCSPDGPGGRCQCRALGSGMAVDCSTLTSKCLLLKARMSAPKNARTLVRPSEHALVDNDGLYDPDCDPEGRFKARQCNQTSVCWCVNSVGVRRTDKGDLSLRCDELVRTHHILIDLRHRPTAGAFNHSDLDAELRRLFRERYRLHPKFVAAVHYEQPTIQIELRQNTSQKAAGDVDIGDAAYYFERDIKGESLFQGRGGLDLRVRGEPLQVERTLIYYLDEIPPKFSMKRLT

T2: recombinant human TROP2 protein (human, UniProt P09758 27-274)
T2 sequence (looked up): T1 chain

B1: anti-PD-L1 #PD2 VHH (VHH)
VHH: DVQLQESGGGLVEPGGSLRLSCAASGFTFNHYGMSWVRQAPGKGLQWVSTLFTTGSSQYANSVKGRFTISRDAAENTLYLHMNNLKPEDTAVYFCAKGVGLGSERGPGTQVTVSS
B2: TROP2 CAR with anti-TROP2 #PL02 scFv (VL-linker-VH) adopted from monoclonal antibody hRS7, on γδ T cells (other, not shown: small tags and cut ends)
chain: DIQLTQSPSSLSASVGDRVSITCKASQDVSIAVAWYQQKPGKAPKLLIYSASYRYTGVPDRFSGSGSGTDFTLTISSLQPEDFAVYYCQQHYITPLTFGAGTKVEIKGGGGSGGGGSGGGGSQVQLQQSGSELKKPGASVKVSCKASGYTFTNYGMNWVKQAPGQGLKWMGWINTYTGEPTYTDDFKGRFAFSLDTSVSTAYLQISSLKADDTAVYFCARGGFGSSYWYFDVWGQGSLVTVSS
notes: CAR on γδ T cells
B3: TROP2 CAR with anti-TROP2 VHH #TP2, on γδ T cells (other)
chain: EVQLVESGGGLAQPGGSLRLSCAASGFTFSTYAMSWARQAPGKGLEWVSGIYADGSGTYYADSVKGRFTISRDNAKNTLYLQMNSLKPEDTALYYCAQGYSDYDRRLGEYDYWGQGTQVTVSSTTTPAPRPPTPAPTIASQPLSLRPEACRPAAGGAVHTRGLDFACDIYIWAPLAGTCGVLLLSLVITLYCKRGRKKLLYIFKQPFMRPVQTTQEEDGCSCRFPEEEEGGCELRVKFSRSADAPAYQQGQNQLYNELNLGRREEYDVLDKRRGRDPEMGGKPRRKNPQEGLYNELQKDKMAEAYSEIGMKGERRRGKGHDGLYQGLSTATKDTYDALHMQALPPR
B4: anti-PD-L1 #PD3 VHH (VHH)
VHH: DVQLQESGGGLVQAGDSLGLSCAASGRAFSLFEMAWYRQAPGKAREFVAAIMWRGGHTVYADSVKGRSTISSDNTKNTVYLQMNSLKPEDTAIYYCRGKVVGSDYWGQGTQVTVSS
B5: anti-PD-L1 #PD1 VHH (VHH)
VHH: DVQLQESGGGLVQAGGSLRLSCAASESIASINVMGWYRQAPGKQRELVAIITNRGTTSYPDSVKGRFTISRDNGKNTVYLQMNTLKPEDTAVYYCNAPWTDGINYWGKGTQVTVSS
B6: TROP2 CAR with anti-TROP2 VHH #TP9, on γδ T cells (other)
chain: QVQLVESGGGLVQPGGSLRLSCAASGFSLDYWAIAWFRQAPGKEREGVSCSGSRGSTHYADSVKGRFTISRDNAKNTVYLQMNSLKPEDAGVYYCAVGSTLYSLTPYEYDYWGQGTQVTVSSTTTPAPRPPTPAPTIASQPLSLRPEACRPAAGGAVHTRGLDFACDIYIWAPLAGTCGVLLLSLVITLYCKRGRKKLLYIFKQPFMRPVQTTQEEDGCSCRFPEEEEGGCELRVKFSRSADAPAYQQGQNQLYNELNLGRREEYDVLDKRRGRDPEMGGKPRRKNPQEGLYNELQKDKMAEAYSEIGMKGERRRGKGHDGLYQGLSTATKDTYDALHMQALPPR
B7: TROP2 CAR with anti-TROP2 VHH #TP12, on γδ T cells (other)
chain: QVQLVESGGGLVQPGGSLRLSCAASRFTLDYYAIGWIRQAPGKEREGVSCISSSGGSTNYADSVKGRFTISRDNAKNTVYLQMNSLKPEDTGVYYCAATTYACSGYVPRAYEYDYWGQGTQVTVSSTTTPAPRPPTPAPTIASQPLSLRPEACRPAAGGAVHTRGLDFACDIYIWAPLAGTCGVLLLSLVITLYCKRGRKKLLYIFKQPFMRPVQTTQEEDGCSCRFPEEEEGGCELRVKFSRSADAPAYQQGQNQLYNELNLGRREEYDVLDKRRGRDPEMGGKPRRKNPQEGLYNELQKDKMAEAYSEIGMKGERRRGKGHDGLYQGLSTATKDTYDALHMQALPPR

Key:
[1] = target: T3, human PD-L1 (antigen of panning and phage ELISA) (human, UniProt Q9NZQ7 19-238, biotinylated (panning antigen)); assay: phage ELISA of clones panned on biotinylated human PD-L1
T3 construct: also called biotinylated human PD-L1
From the text: The animal boosted four times every two weeks. After confirming the serum titer against PD-L1, PBMC was isolated and used for phage display library construction. Anti-PD-L1 binders were isolated with the immunized phage display library using liquid phase Biopanning on biotinylated human PD-L1. Stringency was increased during successive rounds by decreasing antigen concentration, increasing the number and duration of washes, and/or changing the duration of selections. The panning process was repeated three to four times until the output phage enrichment was identified. The eluted phages were diluted and spread on a petri dish to grow single colonies. Individual phage clones were selected and amplified. 384 single colonies were selected and tested for specificity by ELISA. […] After sequencing the positive clones, three unique sequences were obtained based on amino acid sequences.

[2] = target: T1, recombinant human TROP2 protein; assay: binding of TROP2 protein to binder-expressing γδ T cells
[3] = target: T2, recombinant human TROP2 protein; assay: flow cytometry, titration of TROP2 protein on CAR γδ T cells

T3 sequence (Q9NZQ7 19-238 limits assumed): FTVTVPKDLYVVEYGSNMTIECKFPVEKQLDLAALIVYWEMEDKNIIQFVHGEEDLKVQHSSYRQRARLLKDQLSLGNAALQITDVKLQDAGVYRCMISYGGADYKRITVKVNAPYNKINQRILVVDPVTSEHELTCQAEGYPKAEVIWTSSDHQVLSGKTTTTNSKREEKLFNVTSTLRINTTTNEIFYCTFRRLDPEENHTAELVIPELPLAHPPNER

Binder | binding result [1] | EC50 [2] [nM] | binding result [3]
B1 | binds | – | –
B2 | – | 6.81 | binds
B3 | – | 3.43 | –
B4 | binds | – | –
B5 | binds | – | –
B6 | – | 18.1 | –
B7 | – | 14.4 | –
